The source of these data is patent US20210017269A1 (GlaxoSmithKline, published 2021).

Experiment [1] concerns the target T1, human neonatal Fc receptor (FcRn) (human, UniProt P55899 24-297; P61769 21-119, limits assumed).
T1 construct: Recombinant human FcRn; also called human FcRn; recombinant human neonatal receptor
Kind of experiment: ProteOn SPR, human FcRn, pH 6.0.

Experiment [2] deals with T1, human neonatal Fc receptor (FcRn). Nature of the experiment: ProteOn SPR, human FcRn, pH 6.0. The source holds these as a separate data set.
The target of experiment [3] is T2, human IL-5 (recombinant) (human, UniProt P05113 20-134).
T2 construct: exact recombinant constructs are not described; also called recombinant human IL-5; human IL-5 cytokine
Kind of experiment: SPR Biacore T200, 37 °C. In general terms: SPR reads the build-up and loss of mass on a sensor chip optically.

Experiment [4] addresses T3, cynomolgus IL-5 (cynomolgus).
T3 construct: also called cyno IL-5
Nature of the experiment: SPR Biacore T200, 37 °C.

Experiment [5] deals with T2, human IL-5 (recombinant). Nature of the experiment: KinExA solution phase affinity, 25 °C. Here is the method: Kinetic analyses were performed to compare 28Y042-7F11-1, mepolizumab, and GSK3559090A (a comparator IgG1 anti-IL-5 mAb molecule based). Due to the high affinity of 28Y042-7F11-1, it was not possible to accurately determine the dissociation rate by Biacore 4000 at 25° C.; therefore KINEXA analysis was used to calculate an accurate affinity for 28Y042-7F11-1 binding to human IL-5 at 25° C.
Solution phase affinity measurements were made using Sapidyne's KINEXA 3200 instrument. The method relied on the detection of free antibody at equilibrium in a titrated series of antigen concentrations. For detection, a bead matrix was created using NHS-activated SEPHEROSE beads (GE Healthcare, 17-0906-01) coated with human IL-5. For affinity determination, a fixed concentration of antibody was incubated with a dilution series of human IL-5 concentrations and binding was allowed to reach equilibrium before the samples were run on the KINEXA 3200 instrument. Each solution was passed over an aliquot of the antigen beads where free antibody bound to the antigen coated beads and was detected using an anti-human IgG antibody (DYLIGHT 649-AFFINIPURE F(ab′)2 fragment goat anti-human IgG; Jackoson Immunoresearch, 109-496-170), with fresh antigen beads used to measure each sample.

The target of experiment [6] is T1, human neonatal Fc receptor (FcRn). Nature of the experiment: ProteOn SPR, human FcRn, pH 7.4.
Experiment [7] addresses T4, human complement component C1q (human, UniProt P02745 23-245; P02746 28-253; P02747 29-245).
T4 construct: C1q from Sigma (C1740); also called human recombinant soluble complement C1q
Nature of the experiment: ProteOn XPR36 SPR, antibody immobilised, C1q as analyte, equilibrium model. Here is the method:
Binding of 28Y042-7F11-1 to human recombinant soluble complement C1q was assessed using the PROTEOn XPR36 (BioRad™) biosensor instrument. A control antibody containing the YTE change to its Fc region was included as a control.
The antibodies to be tested were immobilised on a GLC chip (Bio-Rad, 176-5011) by primary amine coupling (GE Healthcare, BR-1000-50). Recombinant C1q (Sigma, C1740) was passed over the immobilised antibodies at 512 nM, 128 nM, 32 nM, 8 nM, 2 nM and 0 nM (i.e., buffer alone) and a blank activated and deactivated flow cell was used to double reference binding curves. The running buffer for binding analysis was HBS-EP (pH7.4, Teknova, H8022) with 10 mM CaCl₂. Data were fitted to the equilibrium model, inherent to the PROTEON XPR36 (BioRad™) analysis software using a global R-max value.

Experiment [8] deals with T2, human IL-5 (recombinant). Nature of the experiment: cell-based or functional assay.
Experiment [9] concerns the target T1, human neonatal Fc receptor (FcRn). Kind of experiment: SPR Biacore T200, 37 °C, pH 6.0, antibody captured on immobilised IL-5, FcRn as analyte. Here is the method:
(§1) Table 17 legend/description: Comparison of binding affinity of 28Y042-7F11-1 and mepolizumab for human FcRn at pH 6.0 and pH 7.4.
(§2) The binding affinity of 28Y042-7F11-1 and mepolizumab to human FcRn at pH 6.0 and pH 7.4 was assessed using a BIACORE T200 instrument at 37° C. Human recombinant IL-5 was diluted in acetate buffer pH 5.0 and immobilised to a level of 535 RU by amine coupling on to a CMS chip (GE, BR100530). 28Y042-7F11-1 or mepolizumab were captured by flowing (5 μl/min) a 100 nM solution of either mAb in HBS-EP (Teknova, H8022) buffer for 24 seconds over the chip surface. Following capture of the antibody via the immobilised IL-5, cycles of varying concentrations (0.5 μM to 32 μM) of human FcRn were flowed over the chip surface at 5 μ1/min for 120 seconds contact time followed by 80 seconds dissociation for each cycle. At the completion of each cycle, the chip surface was regenerated using 10 mM Glycine pH 1.5 for 5 seconds at 50 μ1/min followed by 10mM NaOH for 5 seconds at 50 μl/min. FcRn cycles were performed for each concentration at pH 6.0 (HBS-EP+, Teknova, Cat: H8022, pH 6.0) and pH 7.4 (HBS-EP). A molecular weight of 42929 Da for human FcRn was used in the calculations.

Experiment [10] has the same target. Kind of experiment: SPR Biacore T200, 37 °C, pH 7.4, antibody captured on immobilised IL-5, FcRn as analyte. Here is the method: as §1, §2
Experiment [11] shares this target. Kind of experiment: SPR Biacore T200, 37 °C, pH 6.0. The protocol: as §1, §2
Experiment [12] concerns the target T2, human IL-5 (recombinant). Kind of experiment: SPR Biacore 4000, 25 °C, antibody captured on protein A, human IL-5 as analyte.

T4 sequence (P02745 23-245 limits assumed, chain 1 of 3): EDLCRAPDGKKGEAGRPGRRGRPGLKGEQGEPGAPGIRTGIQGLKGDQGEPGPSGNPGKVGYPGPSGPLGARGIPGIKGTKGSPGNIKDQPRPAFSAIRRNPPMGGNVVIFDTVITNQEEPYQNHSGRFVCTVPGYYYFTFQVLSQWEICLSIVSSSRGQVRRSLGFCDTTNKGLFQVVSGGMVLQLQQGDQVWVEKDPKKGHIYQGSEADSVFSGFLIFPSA
T4 sequence (P02746 28-253 limits assumed, chain 2 of 3): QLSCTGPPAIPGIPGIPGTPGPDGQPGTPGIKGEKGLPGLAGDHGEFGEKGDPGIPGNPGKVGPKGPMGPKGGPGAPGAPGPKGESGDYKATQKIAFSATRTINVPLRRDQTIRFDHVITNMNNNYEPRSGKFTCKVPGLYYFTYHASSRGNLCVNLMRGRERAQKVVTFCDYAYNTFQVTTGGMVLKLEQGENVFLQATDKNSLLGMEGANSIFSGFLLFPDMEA
T4 sequence (P02747 29-245 limits assumed, chain 3 of 3): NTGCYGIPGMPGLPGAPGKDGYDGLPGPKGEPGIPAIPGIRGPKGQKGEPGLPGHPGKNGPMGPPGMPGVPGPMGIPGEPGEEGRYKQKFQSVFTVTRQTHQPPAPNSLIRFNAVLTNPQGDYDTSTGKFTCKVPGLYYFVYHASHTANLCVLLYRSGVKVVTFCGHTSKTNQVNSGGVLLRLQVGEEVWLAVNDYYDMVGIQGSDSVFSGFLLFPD

B1: 28Y042-7F11-1 (antibody, human IgG1, kappa)
heavy: QVTLRESGPALVKPTQTLTLTCTVSGFSLTGSSVHWVRQPPGKGLEWLGVIWASGGTDYNSALMSRLSISKDTSRNQVVLTMTNMDPVDTATYYCARDPPSGLLRLDYWGRGTLVTVSSASTKGPSVFPLAPSSKSTSGGTAALGCLVKDYFPEPVTVSWNSGALTSGVHTFPAVLQSSGLYSLSSVVTVPSSSLGTQTYICNVNHKPSNTKVDKRVEPKSCDKTHTCPPCPAPELLGGPSVFLFPPKPKDTLYITREPEVTCVVVDVSHEDPEVKFNWYVDGVEVHNAKTKPREEQYNSTYRVVSVLTVLHQDWLNGKEYKCKVSNKALPAPIEKTISKAKGQPREPQVYTLPPSREEMTKNQVSLTCLVKGFYPSDIAVEWESNGQPENNYKTTPPVLDSDGSFFLYSKLTVDKSRWQQGNVFSCSVMHEALHNHYTQKSLSLSPGK
light: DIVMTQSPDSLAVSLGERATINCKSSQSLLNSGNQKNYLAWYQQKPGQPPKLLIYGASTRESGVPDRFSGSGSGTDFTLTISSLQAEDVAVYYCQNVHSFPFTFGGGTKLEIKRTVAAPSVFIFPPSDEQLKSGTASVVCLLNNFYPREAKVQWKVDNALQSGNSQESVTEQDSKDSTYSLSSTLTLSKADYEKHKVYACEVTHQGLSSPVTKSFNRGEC
notes: Recombinant humanized monoclonal antibody, IgG1 kappa, two heavy and two light chains; also called GSK3511294
On to B1, for which the Kd in experiment [1] worked out at 130 nM; in [3] it was 0.0391 nM; in experiment [4], 0.0239 nM; in experiment [5], 0.0105 nM; in [6], 2650 nM; in experiment [7], 750 nM. Besides, the Kd in [9] stood at 157 nM; in experiment [10], 16200 nM. Also, in [2], the “fold increase in affinity compared to the human IgG1 wild type control” value is around 3 fold. Moreover, the “IC50 in the TF-1 cell assay after thermal stress (1 week at 40 °C in acetate or phosphate buffer)” value in [8] fell in the range of 0.004 to 0.005 nM. In addition, in experiment [8], the “IC50 of inhibition of human IL-5 induced TF-1 cell proliferation” value was 0.004 nM. Moreover, in [8], the “fold improvement in TF-1 cell assay potency compared to mepolizumab” value was around 30 fold. In experiment [11], the “fold increase in affinity compared to mepolizumab” value was around 13 fold.

B2: mepolizumab (antibody)
chain 1: not shown
chain 2: not shown
On to B2, for which, in [8], the “IC50 of inhibition of human IL-5 induced TF-1 cell proliferation” value came to 0.105 nM. For the same molecule, the values for the Kd in [9] and in experiment [12] were 2080 nM and 0.123 nM, respectively.

The Kd is the free concentration of one partner at which half of the binding sites on the other are occupied at equilibrium, for simple one-to-one binding.
